# Assay results from patent US20200149021, “SYSTEM AND METHOD FOR GENOME EDITING” (INSTITUTE OF ZOOLOGY, CHINESE ACADEMY OF SCIENCES, published 2020).
# T1: HkCpf1 (Helcococcus kunzii)
# T1 chain: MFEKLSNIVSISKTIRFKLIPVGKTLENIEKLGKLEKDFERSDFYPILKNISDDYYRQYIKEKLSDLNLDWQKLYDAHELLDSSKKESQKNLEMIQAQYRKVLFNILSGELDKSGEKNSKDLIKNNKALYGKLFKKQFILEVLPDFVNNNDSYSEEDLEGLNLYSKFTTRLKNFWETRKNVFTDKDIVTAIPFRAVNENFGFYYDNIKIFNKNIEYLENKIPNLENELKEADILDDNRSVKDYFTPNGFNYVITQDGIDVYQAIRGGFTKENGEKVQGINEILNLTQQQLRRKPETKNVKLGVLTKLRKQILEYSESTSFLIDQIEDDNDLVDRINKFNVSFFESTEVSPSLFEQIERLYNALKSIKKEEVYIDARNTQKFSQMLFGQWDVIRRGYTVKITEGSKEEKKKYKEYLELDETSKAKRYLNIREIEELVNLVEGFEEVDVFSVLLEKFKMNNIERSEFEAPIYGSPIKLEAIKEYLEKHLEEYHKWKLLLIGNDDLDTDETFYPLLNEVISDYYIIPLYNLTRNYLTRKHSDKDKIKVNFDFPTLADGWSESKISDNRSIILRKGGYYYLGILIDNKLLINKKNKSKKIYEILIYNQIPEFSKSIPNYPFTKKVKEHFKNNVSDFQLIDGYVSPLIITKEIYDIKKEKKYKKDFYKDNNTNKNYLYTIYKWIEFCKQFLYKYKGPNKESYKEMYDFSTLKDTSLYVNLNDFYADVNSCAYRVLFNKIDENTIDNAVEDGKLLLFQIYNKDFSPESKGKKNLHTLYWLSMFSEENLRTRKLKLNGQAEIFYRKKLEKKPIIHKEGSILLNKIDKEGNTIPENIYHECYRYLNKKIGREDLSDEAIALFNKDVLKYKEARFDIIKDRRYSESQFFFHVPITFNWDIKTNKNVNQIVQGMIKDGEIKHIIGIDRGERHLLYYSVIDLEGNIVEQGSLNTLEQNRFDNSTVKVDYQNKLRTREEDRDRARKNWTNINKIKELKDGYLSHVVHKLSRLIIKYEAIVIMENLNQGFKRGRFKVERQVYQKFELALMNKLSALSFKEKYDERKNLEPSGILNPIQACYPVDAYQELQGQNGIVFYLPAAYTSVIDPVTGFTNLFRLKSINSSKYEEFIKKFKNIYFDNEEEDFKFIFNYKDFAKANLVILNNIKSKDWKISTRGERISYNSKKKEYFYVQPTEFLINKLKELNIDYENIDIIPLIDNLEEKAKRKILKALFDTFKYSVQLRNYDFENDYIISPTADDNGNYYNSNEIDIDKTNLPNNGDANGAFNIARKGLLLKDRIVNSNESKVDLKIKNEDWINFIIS
# B1: crRNA31 MeCP2 site 4 ; Mouse MeCP2 site 4 (ssRNA ; dsDNA)
# RNA: AUUUCUACUAUGGUAGAUGUGUCCAACCUUCAGGCAAGGUG
# DNA 1: TTTCGTGTCCAACCTTCAGGCAAGGTG
# DNA 2: CACCTTGCCTGAAGGTTGGACACGAAA
# Target: T1, HkCpf1
# Assay: cell_activity; PAM TTTC; T7EI
# Details: tags: HA (2A-eGFP vector)
# Method: GFP-positive cells were sorted by FACS, lysed with Buffer L+ 1/100V Protease K (Biotool) at 55° C. for 30 min, inactivated at 95° C. for 5 min, and directly used for PCR detection. Appropriate primers were designed near the Cpf1 targeting site, and the amplified product was purified using DNA Clean & Concentrator™-5 kit (ZYMO Research). 200 ng of purified PCR product was added into 1 uL of NEBuffer2 (NEB) and diluted to 10 uL with ddH₂O. Then, heterodimers were formed by re-annealing according to the previously reported method (Li, W., et al., Simultaneous generation and germline transmission of multiple gene mutations in rat using CRISPR-Cas systems. Nat Biotechnol, 2013. 31(8): p. 684-6). The reannealed product was added with 0.3 uL of T7EI endnucelease and 1/10 V NEBuffer2 (NEB), and digested at 37° C. for 1 h 30 min. Genotype analysis was performed by 3% TAE-Gel electrophoresis. Indels were calculated according to the method reported in the previous article (Cong, L., et al., Multiplex genome engineering using CRISPR/Cas systems. Science, 2013. 339(6121): p. 819-23).
# The cells were transfected with Cpf1, crRNA31, and crRNA2 plasmids, and it was confirmed by PCR and T7EI analysis that crRNA31 can increase the editing efficiency of five Cpf1s of ArCpf1, BsCpf1, HkCpf1, PrCpf1, and PxCpf1 at the site MeCP2-4 by two folds (FIG. 13B).
binder,measurement,value
B1,editing efficiency,~2 fold vs crRNA2
